Results as given in US6399759.

Target: T1, Soli E2 (Solenopsis invicta)
T1 sequence: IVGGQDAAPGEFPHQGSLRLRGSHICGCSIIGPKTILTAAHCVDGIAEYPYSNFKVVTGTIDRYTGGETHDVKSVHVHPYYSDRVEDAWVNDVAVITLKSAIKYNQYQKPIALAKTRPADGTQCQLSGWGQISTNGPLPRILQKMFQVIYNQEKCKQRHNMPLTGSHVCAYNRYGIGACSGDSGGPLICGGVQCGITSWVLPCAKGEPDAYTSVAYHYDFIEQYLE
Experiment: cell-based or functional assay

Chain of α-1-Proteinase Inhibitor (P01009 25-418 limits assumed): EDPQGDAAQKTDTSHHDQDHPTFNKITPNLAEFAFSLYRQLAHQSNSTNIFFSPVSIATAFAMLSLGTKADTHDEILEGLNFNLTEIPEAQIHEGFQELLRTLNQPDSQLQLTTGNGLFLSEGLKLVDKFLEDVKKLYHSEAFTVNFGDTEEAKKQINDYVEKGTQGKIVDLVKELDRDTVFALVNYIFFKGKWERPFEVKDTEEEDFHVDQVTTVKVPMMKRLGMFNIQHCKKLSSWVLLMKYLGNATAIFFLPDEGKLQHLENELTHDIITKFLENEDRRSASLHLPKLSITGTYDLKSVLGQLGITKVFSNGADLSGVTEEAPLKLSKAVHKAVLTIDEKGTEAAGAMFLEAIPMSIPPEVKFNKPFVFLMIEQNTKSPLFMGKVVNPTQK

Substance | Max Inhibition Rate/IC50 | IC50 [nM]
Boc-Val-Pro Val-^p(OPh)2 (peptide) | 735 | 
Canadian Goose OM Domain III (from UniProt P68393 1-54) |  | 27.3
Domestic Goose OM |  | 6.03
Domestic Goose OM Domain III (from UniProt P68389 1-54) |  | 5.58
Potato Inhibitor II |  | 10.1
Z-Phe-Phe-^p(OPh)2 (peptide) | < 0.1 | 
Z-Pro-Val-^p(OPh)2 (peptide) | 36.6 | 
α-1-Proteinase Inhibitor (from UniProt P01009 25-418) |  | 0.604

The remaining lines, values ahead:

Max Inhibition Rate/IC50 | IC50 [nM] | Substance
666 |  | Boc-Ala-Pro-Val-^p(OPh)2 (peptide)
 | 7.68 | Canadian Goose OM
 | 1.89 | Eglin C (from UniProt P01051 1-70)
 | 9.13 | Potato Inhibitor I
27.2 |  | Z-Ala-Val-^p(OPh)2 (peptide)
< 0.1 |  | Z-Gly-Leu-Phe-CK (peptide)
< 0.1 |  | Z-Leu-Phe-^p(OPh)2 (peptide)
< 0.1 |  | Z-Phe-Leu-Phe-^p(OPh)2 (peptide)
76.8 |  | Z-Val-Val-^p(OPh)2 (peptide)
